Laboratory results: the Human Domainome abundance scans (Beltran et al. 2025)
± gives the uncertainty stated by the source.

B1: E3 ubiquitin-protein ligase TRIM36, residues 208 to 252; numbered along this chain, Q9NQ86 (parent)
chain: KILMCPEHETERINMYCELCRRPVCHLCKLGGNHANHRVTTMSSA

Variants of: B1
Test: abundance fitness (aPCA) (normalised: wild type 0, dead -1); higher = more abundant; growth selection in yeast, the domain comes from the species named
Conditions: Homo sapiens

Going from AILMCPEHETERINMYCELCRRPVCHLCKLGGNHANHRVTTMSSA [K1A] to YILMCPEHETERINMYCELCRRPVCHLCKLGGNHANHRVTTMSSA [K1Y], the abundance fitness falls from -0.25 ± 0.068 to -0.497 ± 0.12.

Compared with CILMCPEHETERINMYCELCRRPVCHLCKLGGNHANHRVTTMSSA [K1C], FILMCPEHETERINMYCELCRRPVCHLCKLGGNHANHRVTTMSSA [K1F] is higher in abundance fitness: -0.573 ± 0.17 for the first, -0.167 ± 0.097 for the second.

First: WILMCPEHETERINMYCELCRRPVCHLCKLGGNHANHRVTTMSSA [K1W]
Second: RILMCPEHETERINMYCELCRRPVCHLCKLGGNHANHRVTTMSSA [K1R]
The abundance fitness of the first is lower: -0.508 ± 0.057 for the first, -0.28 ± 0.062 for the second.

LILMCPEHETERINMYCELCRRPVCHLCKLGGNHANHRVTTMSSA [K1L] and IILMCPEHETERINMYCELCRRPVCHLCKLGGNHANHRVTTMSSA [K1I] are within error of each other in abundance fitness: -0.388 ± 0.092 for the first, -0.291 ± 0.14 for the second.

VILMCPEHETERINMYCELCRRPVCHLCKLGGNHANHRVTTMSSA [K1V] and MILMCPEHETERINMYCELCRRPVCHLCKLGGNHANHRVTTMSSA [K1M] are within error of each other in abundance fitness: -0.243 ± 0.078 for the first, -0.277 ± 0.073 for the second.

GILMCPEHETERINMYCELCRRPVCHLCKLGGNHANHRVTTMSSA [K1G] and QILMCPEHETERINMYCELCRRPVCHLCKLGGNHANHRVTTMSSA [K1Q] are within error of each other in abundance fitness: -0.273 ± 0.058 for the first, -0.236 ± 0.081 for the second.

TILMCPEHETERINMYCELCRRPVCHLCKLGGNHANHRVTTMSSA [K1T] and NILMCPEHETERINMYCELCRRPVCHLCKLGGNHANHRVTTMSSA [K1N] are within error of each other in abundance fitness: -0.157 ± 0.065 for the first, -0.101 ± 0.11 for the second.

HILMCPEHETERINMYCELCRRPVCHLCKLGGNHANHRVTTMSSA [K1H] and SILMCPEHETERINMYCELCRRPVCHLCKLGGNHANHRVTTMSSA [K1S] are within error of each other in abundance fitness: -0.283 ± 0.14 for the first, -0.396 ± 0.058 for the second.

First: KISMCPEHETERINMYCELCRRPVCHLCKLGGNHANHRVTTMSSA [L3S]
Second: KIEMCPEHETERINMYCELCRRPVCHLCKLGGNHANHRVTTMSSA [L3E]
The abundance fitness of the first is lower: -0.007 ± 0.048 for the first, 0.163 ± 0.052 for the second.

KICMCPEHETERINMYCELCRRPVCHLCKLGGNHANHRVTTMSSA [L3C] and KITMCPEHETERINMYCELCRRPVCHLCKLGGNHANHRVTTMSSA [L3T] are within error of each other in abundance fitness: -0.055 ± 0.057 for the first, 0.036 ± 0.058 for the second.

Going from KIIMCPEHETERINMYCELCRRPVCHLCKLGGNHANHRVTTMSSA [L3I] to KIWMCPEHETERINMYCELCRRPVCHLCKLGGNHANHRVTTMSSA [L3W], the abundance fitness falls from 0.061 ± 0.079 to -0.254 ± 0.053.

KIAMCPEHETERINMYCELCRRPVCHLCKLGGNHANHRVTTMSSA [L3A] and KIGMCPEHETERINMYCELCRRPVCHLCKLGGNHANHRVTTMSSA [L3G] are within error of each other in abundance fitness: -0.001 ± 0.048 for the first, -0.016 ± 0.045 for the second.

KIFMCPEHETERINMYCELCRRPVCHLCKLGGNHANHRVTTMSSA [L3F] and KIYMCPEHETERINMYCELCRRPVCHLCKLGGNHANHRVTTMSSA [L3Y] are within error of each other in abundance fitness: -0.04 ± 0.19 for the first, -0.008 ± 0.092 for the second.

KIVMCPEHETERINMYCELCRRPVCHLCKLGGNHANHRVTTMSSA [L3V] and KIKMCPEHETERINMYCELCRRPVCHLCKLGGNHANHRVTTMSSA [L3K] are within error of each other in abundance fitness: -0.037 ± 0.05 for the first, 0.006 ± 0.058 for the second.

KIRMCPEHETERINMYCELCRRPVCHLCKLGGNHANHRVTTMSSA [L3R] and KIHMCPEHETERINMYCELCRRPVCHLCKLGGNHANHRVTTMSSA [L3H] are within error of each other in abundance fitness: -0.114 ± 0.042 for the first, -0.131 ± 0.078 for the second.

KINMCPEHETERINMYCELCRRPVCHLCKLGGNHANHRVTTMSSA [L3N] and KIDMCPEHETERINMYCELCRRPVCHLCKLGGNHANHRVTTMSSA [L3D] are within error of each other in abundance fitness: -0.013 ± 0.1 for the first, 0.07 ± 0.059 for the second.

First: KIMMCPEHETERINMYCELCRRPVCHLCKLGGNHANHRVTTMSSA [L3M]
Second: KIPMCPEHETERINMYCELCRRPVCHLCKLGGNHANHRVTTMSSA [L3P]
The abundance fitness of the first is higher: 0.092 ± 0.056 for the first, -0.128 ± 0.058 for the second.

Compared with KILFCPEHETERINMYCELCRRPVCHLCKLGGNHANHRVTTMSSA [M4F], KILCCPEHETERINMYCELCRRPVCHLCKLGGNHANHRVTTMSSA [M4C] is lower in abundance fitness: 0.188 ± 0.12 for the first, -0.075 ± 0.076 for the second.

First: KILRCPEHETERINMYCELCRRPVCHLCKLGGNHANHRVTTMSSA [M4R]
Second: KILYCPEHETERINMYCELCRRPVCHLCKLGGNHANHRVTTMSSA [M4Y]
The abundance fitness of the first is lower: -0.165 ± 0.044 for the first, 0.031 ± 0.055 for the second.

First: KILICPEHETERINMYCELCRRPVCHLCKLGGNHANHRVTTMSSA [M4I]
Second: KILSCPEHETERINMYCELCRRPVCHLCKLGGNHANHRVTTMSSA [M4S]
The abundance fitness of the first is higher: -0.063 ± 0.081 for the first, -0.203 ± 0.049 for the second.

Going from KILKCPEHETERINMYCELCRRPVCHLCKLGGNHANHRVTTMSSA [M4K] to KILDCPEHETERINMYCELCRRPVCHLCKLGGNHANHRVTTMSSA [M4D], the abundance fitness falls from -0.054 ± 0.057 to -0.189 ± 0.058.

KILTCPEHETERINMYCELCRRPVCHLCKLGGNHANHRVTTMSSA [M4T] and KILNCPEHETERINMYCELCRRPVCHLCKLGGNHANHRVTTMSSA [M4N] are within error of each other in abundance fitness: -0.072 ± 0.067 for the first, -0.101 ± 0.13 for the second.

KILGCPEHETERINMYCELCRRPVCHLCKLGGNHANHRVTTMSSA [M4G] and KILPCPEHETERINMYCELCRRPVCHLCKLGGNHANHRVTTMSSA [M4P] are within error of each other in abundance fitness: -0.238 ± 0.046 for the first, -0.288 ± 0.056 for the second.

KILWCPEHETERINMYCELCRRPVCHLCKLGGNHANHRVTTMSSA [M4W] and KILVCPEHETERINMYCELCRRPVCHLCKLGGNHANHRVTTMSSA [M4V] are within error of each other in abundance fitness: -0.191 ± 0.062 for the first, -0.077 ± 0.065 for the second.

KILECPEHETERINMYCELCRRPVCHLCKLGGNHANHRVTTMSSA [M4E] and KILLCPEHETERINMYCELCRRPVCHLCKLGGNHANHRVTTMSSA [M4L] are within error of each other in abundance fitness: -0.173 ± 0.061 for the first, -0.187 ± 0.062 for the second.

KILHCPEHETERINMYCELCRRPVCHLCKLGGNHANHRVTTMSSA [M4H] and KILQCPEHETERINMYCELCRRPVCHLCKLGGNHANHRVTTMSSA [M4Q] are within error of each other in abundance fitness: -0.133 ± 0.057 for the first, -0.181 ± 0.059 for the second.

Work on KILMDPEHETERINMYCELCRRPVCHLCKLGGNHANHRVTTMSSA [C5D] yielded an abundance fitness of -0.536 ± 0.092.
